Measured values: patent publication US20250144104, “DISCOVERY OF A NEW INHIBITOR FOR THE YTH DOMAIN-CONTAINING M6A RNA READERS” (The Trustees of Boston College, published 2025)

T1: YTHDF1 YTH domain (UniProt Q9BYJ9 Q9BYJ9:375-552)
T1 sequence: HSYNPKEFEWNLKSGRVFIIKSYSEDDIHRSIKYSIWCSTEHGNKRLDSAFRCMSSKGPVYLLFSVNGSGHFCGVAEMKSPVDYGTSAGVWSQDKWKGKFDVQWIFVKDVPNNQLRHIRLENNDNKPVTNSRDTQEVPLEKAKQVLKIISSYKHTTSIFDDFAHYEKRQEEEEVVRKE

T2: YTHDF2 YTH domain (UniProt Q9Y5A9 Q9Y5A9:383-553)
T2 sequence: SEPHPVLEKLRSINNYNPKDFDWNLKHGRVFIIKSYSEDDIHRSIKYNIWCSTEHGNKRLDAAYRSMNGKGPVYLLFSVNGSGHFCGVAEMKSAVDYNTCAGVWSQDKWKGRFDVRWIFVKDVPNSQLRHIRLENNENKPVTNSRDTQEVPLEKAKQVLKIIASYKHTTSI

T3: YTHDF3 YTH domain (UniProt Q7Z739 Q7Z739:391-585)
T3 sequence: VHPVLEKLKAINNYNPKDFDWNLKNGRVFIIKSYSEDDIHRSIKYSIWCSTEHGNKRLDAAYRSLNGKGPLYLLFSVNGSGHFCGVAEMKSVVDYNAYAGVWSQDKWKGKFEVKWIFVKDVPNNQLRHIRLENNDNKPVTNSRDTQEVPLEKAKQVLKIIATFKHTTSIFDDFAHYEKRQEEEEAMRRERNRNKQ

T4: YTHDC2 YTH domain (UniProt Q9H6S0 Q9H6S0:1285-1424)
T4 sequence: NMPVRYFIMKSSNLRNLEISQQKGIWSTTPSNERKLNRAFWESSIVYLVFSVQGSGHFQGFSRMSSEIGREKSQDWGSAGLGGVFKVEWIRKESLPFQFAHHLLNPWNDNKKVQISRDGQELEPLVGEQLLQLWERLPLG


Experiments:
FTO = FTO (UniProt Q9C0B1 Q9C0B1:1-505); test: FP; value only in figure; 50 mM borate pH 7.5; conditions: tags: His-tag (Ni resin purified), E. coli BL21(DE3); label: 5'-FAM
Chain of FTO (Q9C0B1 whole entry, the tested form may be a part, one chain of several): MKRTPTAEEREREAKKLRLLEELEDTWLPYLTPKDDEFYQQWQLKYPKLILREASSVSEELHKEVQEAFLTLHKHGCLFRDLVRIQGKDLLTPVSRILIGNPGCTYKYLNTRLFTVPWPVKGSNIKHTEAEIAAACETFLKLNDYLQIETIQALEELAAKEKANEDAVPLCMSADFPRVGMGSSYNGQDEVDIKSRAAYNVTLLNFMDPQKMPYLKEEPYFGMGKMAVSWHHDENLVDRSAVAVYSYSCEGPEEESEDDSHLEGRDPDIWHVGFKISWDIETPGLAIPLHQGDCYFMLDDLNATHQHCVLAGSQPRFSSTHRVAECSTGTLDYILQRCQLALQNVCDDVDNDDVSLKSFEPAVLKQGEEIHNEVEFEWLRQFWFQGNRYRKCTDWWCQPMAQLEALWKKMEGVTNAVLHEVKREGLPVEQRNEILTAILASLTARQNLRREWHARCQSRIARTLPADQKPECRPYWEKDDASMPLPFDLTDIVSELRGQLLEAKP

YTHDC1 YTH domain [1] = target: T5, YTHDC1 YTH domain (UniProt Q96MU7 Q96MU7:345-509); test: EMSA; 20 nM protein, 25 nM RNA, 10 mM HEPES, 50 mM KCl, 1 mM EDTA; complex inhibited by N-7
YTHDF1 YTH domain = target: T1, YTHDF1 YTH domain; test: FP; 25 mM Tris-HCl pH 7.5, 150 mM NaCl, 25 C; conditions: tags: N-terminal His-tag (pET28a), E. coli BL21(DE3); label: 5'-FAM
Method: (§1) Fluorescence polarization (FP) experiments were performed following the previously reported FP assay conditions for FAM-labeled RNA and YTH domains. Briefly, experiments were conducted in the binding buffer containing 25 mM Tris-HCl, pH 7.5, and 150 mM NaCl[50]. The same binding buffer was used in this study unless otherwise specified. RNA samples were diluted to 50 nM from the stock solutions by the binding buffer. YTH domain proteins were thawed, buffer exchanged into the binding buffer at 4° C. using the 10 kDa-cutoff concentrators (Sigma-Aldrich), and adjusted to 2× of the highest concentration used in the binding assay. […] RNase inhibitor (SUPERaseIn, Invitrogen) was added. 40 L protein solutions with various concentrations were prepared by serial dilution using the binding buffer. Subsequently, we added 40 L diluted RNA into each 40 L protein solution, mixed, and incubated at room temperature for 30 minutes. The final concentration of FAM-m⁶A-RNA or FAM-A-RNA was constant at 25 nM, and the YTH-domain protein concentrations varied from 10 nM to 24 μM. […] After incubation, samples were transferred to a black polypropylene 384-well round-bottom plate (Cellvis) and FP was measured on a Synergy™ Neo2 Multimode Microplate Reader at the wavelength of 485/20 nm for excitation and 528/20 nm for emission at 25° C.

YTHDF2 YTH domain [2] = target: T2, YTHDF2 YTH domain; test: FP; value only in figure; 25 mM Tris-HCl pH 7.5, 150 mM NaCl; conditions: tags: N-terminal His-tag (pET28a), E. coli BL21(DE3); label: 5'-FAM
Method: as §1

YTHDF3 YTH domain [3] = target: T3, YTHDF3 YTH domain; test: as above; conditions: tags: N-terminal His-tag (pET28a), E. coli BL21(DE3); label: 5'-FAM
Method: as §1

YTHDC2 YTH domain = target: T4, YTHDC2 YTH domain; test: competition; value only in figure; 10 uM protein, 25 nM FAM-m6A-RNA; conditions: tags: N-terminal His-tag (pET28a), E. coli BL21(DE3); label: FAM
Excerpt: To set up the FP competition assay, we first used the non-fluorescent “m⁶A-RNA” (FIG. 1C) as a positive control inhibitor. […] Samples were transferred onto the 384-well plate and measured on the plate reader as described above. We obtained the dose-response curves by plotting the FP values against concentrations of inhibitors. The inhibitory curves and IC₅₀ values were obtained using the “Dose-response Inhibition” model in GraphPad Prism6.0™.

YTHDC1 YTH domain [4] = target: T5, YTHDC1 YTH domain; test: competition; value only in figure; 2 uM protein, 25 nM FAM-m6A-RNA
YTHDF2 YTH domain [5] = target: T2, YTHDF2 YTH domain; test: as above; conditions: tags: N-terminal His-tag (pET28a), E. coli BL21(DE3); label: 5'-biotin
YTHDF3 YTH domain [6] = target: T3, YTHDF3 YTH domain; test: as above; conditions: tags: N-terminal His-tag (pET28a), E. coli BL21(DE3); label: 5'-biotin

Row | Binder | binding result (FTO) | binding result (YTHDC1 YTH domain [1]) | Kd (YTHDF1 YTH domain) [nM] | binding result (YTHDF2 YTH domain [2]) | binding result (YTHDF3 YTH domain [3]) | binding result (YTHDC2 YTH domain) | binding result (YTHDC1 YTH domain [4]) | binding result (YTHDF2 YTH domain [5]) | binding result (YTHDF3 YTH domain [6])
1 | GAACCGGACUGUCUUA (ssRNA, m6A at position 8) [FAM-m6A-RNA] | binds | binds | 800 | binds | binds | – | – | – | –
2 | GAACCGGACUGUCUUA (ssRNA, m6A at position 8) [m6A-RNA (non-fluorescent)] | – | – | – | – | – | binds | binds | binds | binds
